This data set can be described thus: yeast display, Sf9 membrane polyspecificity reagent, FACS + sequencing; frameworks hold sequencing errors. The gist of the method: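 In a synthetic yeast display library (Saccharomyces cerevisiae BJ5465), nanobody expression was induced with galactose for 36–48 hours. FACS gates were set low and high (top ~1%) using anti-HA fluorescence for expression and streptavidin fluorescence for binding of the Sf9 membrane reagent. Each polyreactivity label is drawn from the gate of origin.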
In the case of “QVQLVESGGGLVQAGGSLRLSSASSGFTFTFYAMGWYRQEPGKERELVAAISKGGGSTSYADSVKGRFTISRDNAKNTVYLQMNCLKPEETAVYYCAARYYYSRSRLYYYWGQGTQVTVSS”, the “polyreactivity (PSR sort gate)” value is recorded as “high polyreactivity”.
The value for “QVQLVESGGGLVQAGGSLRLSSASSGSIFESNALGWYRQAPGKEREFVAAIDQNDGSTNYADSVKGRFTISRDNAKNTVYLQMYSLNPEDTAVYYCAASPGTASYDYWGQGTQVTVSS” was “low polyreactivity”; that for “QVQLVESGGGLVQAGGSLRLSSDASGRIFRYYSMGWYRQAPGKERELVAAITRGGYTNYADSVKGRFTISRDNAKITVYFQMNSLKQEDTAVYYCATRQSWYPRWMDYWGQGTQVTVSS” was “high polyreactivity”.
For “QVQLVESGGGLVQAGGSLRLSSPASGSTYVVYAMGWYRPAPGKERELVADITRSGGSTYYADSVKGRFTISRDNAKNTVYLQMNSLKPEDSAVYYCAAVRRNGPYKYYYWGQGTQVTVSS” the value was “high polyreactivity”.
Turning to “QVQLVESGGGLVQAGGSLRLSSSASGGTFWDYAMGCYRQAPGKERELVAAINWSGDSTYADSVKGRFTISRDNAKNTCYLQMTSLKPEDTAVYYCNADVWYYRMDYWGQGTQVTVSS”, the “polyreactivity (PSR sort gate)” value is listed as “low polyreactivity”.
The value for “QVQLVESGGGLVQAGGSLRLSWAAAGFIFYYNAMGRYRQAPGKERELVAAIDESGGSTYYADSVKGRFTISRDNATNTVYLQLNSLKPEDSAVYYCDTDDTWSISYGWYWFTYEYWGQGTQVTVSS” was “low polyreactivity”.
For “QVQLVESGGGLVQAGGSLRLSWAASGFTFYRYAMGWYRQAPGKERELVAAITRSGSRTYYADSVKGRFTISRDNAKNTVYVQMNSLKPEDTAVYYCNTDGGDHPTARYGYWGQGTQVTVSS”, the “polyreactivity (PSR sort gate)” value is “high polyreactivity”.
For “QVQLVESGGGLVQAGGSLRLSWAASGIILQEYTMGWYRPAHWKERELVAAISVRGGSTYYADSVKGRFTISRDHAKNTVYLQMNSLKPEDTAVYYCAAAYYRRPPGFNYWGQGTEVTVSS”, the “polyreactivity (PSR sort gate)” value is given as “high polyreactivity”.
On to “QVQLVESGGGLVQAGGSLRLSWAASGRTIVYYAMGWYSQAPGKEREFVAAISRSGGRTSYADSVKGRFTISRDNAKNTVYLHMNILKPDDTAVYYCAAEKRTQPTSREYYWGKGTQVTVSS”, for which the “polyreactivity (PSR sort gate)” value is “high polyreactivity”.
For “QVQLVESGGGLVQAGGSLRLSWAASGSIFFLYAMGWYRQAPAKERELVAAITSIGGSTYADSVKGRFTISRDNAKNTVYLQMNSLKPEDTAVYYCNTDEYPLTVQVQYYYWGQGTEVTVSS” the value was “low polyreactivity”; for “QVQLVESGGGLVQAGGSLRLSWAASGSIFGWYGMGWYSPAPGKERELVAAITRGGSTYYADSVKGRFTISRDNAKNTVYLQMNSLKPEDTAGYYCAKRSGQQYGGYGYWGQGTQVTVSS”, “low polyreactivity”.
The value for “QVQLVESGGGLVQAGGSLRLSWAASGSNFDAYAMGWYRPAPGKERELVAAINARGGSTYYADSVKGRFTISRDNAKNTVYLQMNSLKPEETAVYDCNRLSRVRRYIYDYWGQGTQVTVSS” was “high polyreactivity”; that for “QVQLVESGGGLVQAGGSLRLSWAAYGRIFLTNAMGWYRQAPGKERELVAAITSGGSTYYADSVKGRFTISRDNAKNTVYLQMNSLKPEDTAVYYCKADTDRYWPYEYDYWGQGTQVTVSS” was “low polyreactivity”; that for “QVQLVESGGGLVQAGGSLRLSWAAYGRTILWYTMGWYRQAPGKERDLVADISSSGGTTFYADSVKGRFTISRDNAKNTVYLQMNSLKAVDNAVYYCKRNARKLRTVHSSVVGLDYWGQGTQVTVSS” was “low polyreactivity”.
For “QVQLVESGGGLVQAGGSLRLTCAASALTFVWYAMGWYRQATGKERELVAAIRGGGSTYYADSVKGRFTISRDNAKNTVYLQMNRLIPEDTAVYYCAAQRSPYYTFYYWGQGTQVTVSS” the value was “high polyreactivity”; for “QVQLVESGGGLVQAGGSLRLTCAASARTFFGYAMGWYRQAHGKARELVARIRWSTTYYADSVKGRFTISRDNAKNTVYLQMNSLKPEDTAVYYCNAVYYYVGYRYDYWGQGTQVTVSS”, “high polyreactivity”.
On to “QVQLVESGGGLVQAGGSLRLTCAASGFIFAHYAMGWYRQAPGKERELVAAISSRGGSTYYADSVKGRFTISRDNAKNTVYLQMNSLKPEDTAVYYCAKARHRPARGYEYWGQGTQVTVSS”, for which the “polyreactivity (PSR sort gate)” value is recorded as “high polyreactivity”.
For “QVQLVESGGGLVQAGGSLRLTCAASGFIFGSYSMGWYRQAPGKERELVAAITSGGSTYYADSVKGRFTISRDNAKNTVYLQMNSLKPEDTAVYYCAKYHWRLSFSRYPYDYWGQGTQVTVSS” the value was “high polyreactivity”; for “QVQLVESGGGLVQAGGSLRLTCAASGFIFNFYAMGWYRQAPGKERELVAAISRNGGSTYYADSVKGRFTISRDNAKNTVYLQMNSLKPEDTAVYYCNAGGSYGDFGYWGKGTQVTVSS”, “high polyreactivity”.
For “QVQLVESGGGLVQAGGSLRLTCAASGFTFDRYAMGWYRQAPGKEREVVAAISRSGTSTYYADSVKGRFTISRDNAKNTVYLQMNSLKPEDTAVYYCATRYNVYFPSRRYQYDYWGQGSQVTVSS”, the “polyreactivity (PSR sort gate)” value is recorded as “high polyreactivity”.
The value for “QVQLVESGGGLVQAGGSLRLTCAASGFTFRYYAMGWSRQAPGKERELVATISTGSGVSTYYADSVKGRFTISRDNAKNTVYLQMNSLKPEDTAVYYCAAVFGWRRYVTYDYWGQGTQVTVSS” was “low polyreactivity”; that for “QVQLVESGGGLVQAGGSLRLTCAASGGTFIKNAMGWYRQAPGKERELVAAISWSGGRTYYADSVKGRFTITRDNPKNTVYLPMNSLKPEDTAVYYCNARYAGRLSYSYEYWGQVTQVTVSS” was “high polyreactivity”.
For the sequence “QVQLVESGGGLVQAGGSLRLTCAASGIIFCDYVMGWYRQEPGKESELVAAISASGGRTYYADSVKGRFTISRDNAKNTVYLQMTSLKPEDTAVYYCNKRYRNRYSYSEGDYWGQGTQLTVSS”, the “polyreactivity (PSR sort gate)” value is “high polyreactivity”.
Consider “QVQLVESGGGLVQAGGSLRLTCAASGIIFDDYAMGWYRQAPGKERELVAAISWIGTTTYYADSVKGRFTISRDNAKKTVYFQMNILKPEDTAVYYCNARPYPSYKYDYWGQGTQVTVSS”, for which the “polyreactivity (PSR sort gate)” value is “high polyreactivity”.
For “QVQLVESGGGLVQAGGSLRLTCAASGIIFFKNAMGWYRQAPGKERELVASINRSGGSTYYADSVKGRFTISRDNAKNTGYFQMNSLKPEDTAVFYCNARLTLRSYDYWGLGTQVTVSS” the value was “low polyreactivity”; for “QVQLVESGGGLVQAGGSLRLTCAASGIIFGHYAMGWYRQAPGKERELVAAITASSGNTYYADSVKGRFTISRDNAKNTVYLQMNSLKPEDTAVYYCAAVSYSSYRYDYWGQGTQVTVSS”, “high polyreactivity”; for “QVQLVESGGGLVQAGGSLRLTCAASGIIFYGYAIGWYRQAPGKERQLVAAISSGGGTNYADSVKGRFTISRDNAKNTVYLQMNSLKPEDTAVYYCAARQYRRVKQGNYWGQGTQVTLSS”, “high polyreactivity”.
As for “QVQLVESGGGLVQAGGSLRLTCAASGIIFYIYAMGWYRQAPGKERELVAGISWRGGSTSYADSVKGRFTISRDNAKNTVYLQMNSLKPEDTAVYYCAAEVYSWDGYDYWGQGTQVTVSS”, the “polyreactivity (PSR sort gate)” value is on record as “low polyreactivity”.
The value for “QVQLVESGGGLVQAGGSLRLTCAASGITFQYYVMGWYRHAPGKERELVAAITRRGGSTYYADSVKGRFTISRDNAKNTVYLQMNSLKPEDTAVYYCAAAITYLPAYRYNYWGQGTQVTVSS” was “high polyreactivity”; that for “QVQLVESGGGLVQAGGSLRLTCAASGLIFAENAMGWYRQAPGKERELVASITKSGGRTYYADSVKGRFTISRDNAKNTVYLQMNSLKPEDTAVYDCAAISYFPLRTRYERWFYYWGQGTQVTVSS” was “high polyreactivity”.

Values taken from the nanobody polyreactivity screen of Harvey et al. (2022).
